In publication PMC8989918, “SH3-domain mutations selectively disrupt Csk homodimerization or PTPN22 binding” (Scientific Reports, 2022):

Molecular target: the molecule itself
Test: SEC; 1 ml (20 mg, 400 µM) purified Csk loaded onto a HiLoad 16/60 Superdex 200 column; apparent molecular weight from partition coefficients of standard proteins

B1: purified recombinant Csk WT (natural protein, mouse, UniProt P41241 1-450, looked up)
chain: MSAIQAAWPSGTECIAKYNFHGTAEQDLPFCKGDVLTIVAVTKDPNWYKAKNKVGREGIIPANYVQKREGVKAGTKLSLMPWFHGKITREQAERLLYPPETGLFLVRESTNYPGDYTLCVSCEGKVEHYRIMYHASKLSIDEEVYFENLMQLVEHYTTDADGLCTRLIKPKVMEGTVAAQDEFYRSGWALNMKELKLLQTIGKGEFGDVMLGDYRGNKVAVKCIKNDATAQAFLAEASVMTQLRHSNLVQLLGVIVEEKGGLYIVTEYMAKGSLVDYLRSRGRSVLGGDCLLKFSLDVCEAMEYLEGNNFVHRDLAARNVLVSEDNVAKVSDFGLTKEASSTQDTGKLPVKWTAPEALREKKFSTKSDVWSFGILLWEIYSFGRVPYPRIPLKDVVPRVEKGYKMDAPDGCPPAVYEVMKNCWHLDAATRPTFLQLREQLEHIKTHELHL
notes: Csk, tyrosine-protein kinase, mouse, full length (50.6 kDa), from pGEX-6P-3; also called WT Csk; full-length Csk; source: E. coli BL21(DE3), purified (GST Gravitrap, PreScission cleavage, HiTrap Q, Superdex 200); not shown: GST, N-terminal, cleaved
Q: Does B1 bind?
A: Result: binds
